Results on nine proteins are retold here after paper PMC10978839.

The nature of data set [1]: confocal colocalisation with calreticulin/GM130; membrane trafficking. The settings on record: glycan lost; control: SEMA7A-WT.
Data set [2] can be described thus: immunofluorescence intensity, HN6 and HN30. The settings on record: glycan lost; control: untreated and O-Glycosidase-treated cells.
The nature of data set [3]: non-reducing vs reducing western blot. The settings on record: glycan lost; control: SEMA7A-WT.
The nature of data set [4]: IL-2 ELISA after coculture. The conditions noted are these: glycan lost; control: SEMA7A-WT tumor cells. Background: In an ELISA, binding on a coated surface is turned into a signal by an enzyme label.
Data set [5] can be described thus: CHX plus MG132/HCQ/BTZ, immunoblot; degradation pathway. The conditions noted are these: glycan lost; control: SEMA7A-WT. (In general: A western blot detects proteins with antibodies after separation by electrophoresis.)
The nature of the next data set: ELISA of secreted SEMA7A. The settings on record: glycan lost; control: SEMA7A-WT.
The nature of data set [6]: cleaved Caspase-3 and proliferation. The conditions noted are these: glycan lost; control: SEMA7A-WT cells.
The nature of data set [7]: CHX chase immunoblot, turnover rate. The settings on record: glycan lost.
A short description of data set [8]: CRT expression and nuclear HMGB1 with doxorubicin. The conditions noted are these: glycan lost; control: SEMA7A-WT cells.
Data set [9] is described as follows: real-time PCR of PD-L1 isoforms. The conditions noted are these: glycan lost; control: SEMA7A-WT cells.
The nature of data set [10]: flow cytometry of PD-1, LAG3, CTLA4, TIM3. The conditions noted are these: glycan lost; control: SEMA7A-WT tumor cells. In general terms: A flow cytometer gives signals particle by particle.
The nature of data set [11]: coculture, Annexin V/PI flow cytometry. The conditions noted are these: glycan lost; control: SEMA7A-WT tumor cells.
A further data set in a line: cell viability. The conditions noted are these: glycan lost; control: SEMA7A-WT cells.

B1: SEMA7A: N258Q (protein)
parent chain: MTPPPPGRAAPSAPRARVPGPPARLGLPLRLRLLLLLWAAAASAQGHLRSGPRIFAVWKGHVGQDRVDFGQTEPHTVLFHEPGSSSVWVGGRGKVYLFDFPEGKNASVRTVNIGSTKGSCLDKRDCENYITLLERRSEGLLACGTNARHPSCWNLVNGTVVPLGEMRGYAPFSPDENSLVLFEGDEVYSTIRKQEYNGKIPRFRRIRGESELYTSDTVMQNPQFIKATIVHQDQAYDDKIYYFFREDNPDKNPEAPLNVSRVAQLCRGDQGGESSLSVSKWNTFLKAMLVCSDAATNKNFNRLQDVFLLPDPSGQWRDTRVYGVFSNPWNYSAVCVYSLGDIDKVFRTSSLKGYHSSLPNPRPGKCLPDQQPIPTETFQVADRHPEVAQRVEPMGPLKTPLFHSKYHYQKVAVHRMQASHGETFHVLYLTTDRGTIHKVVEPGEQEHSFAFNIMEIQPFRRAAAIQTMSLDAERRKLYVSSQWEVSQVPLDLCEVYGGGCHGCLMSRDPYCGWDQGRCISIYSSERSVLQSINPAEPHKECPNPKPDKAPLQKVSLAPNSRYYLSCPMESRHATYSWRHKENVEQSCEPGHQSPNCILFIENLTAQQYGHYFCEAQEGSYFREAQHWQLLPEDGIMAEHLLGHACALAASLWLGVLPTLTLGLLVH
Turning to B1, the localisation_or_trafficking result in data set [1] is “no change”.

B2: SEMA7A: PNGase F (protein)
parent chain: B1 parent chain
Consider B2, for which, in data set [2], the “other: immunofluorescence detection by antibody” value is “increases”.

B3: SEMA7A: N602Q (protein)
parent chain: B1 parent chain
As for B3, in data set [1], the localisation_or_trafficking entry is “no change”.

B4: SEMA7A: N330Q (protein)
parent chain: B1 parent chain
On to B4, for which the localisation_or_trafficking result in [1] is “no change”.

B5: SEMA7A: N105Q (protein)
parent chain: B1 parent chain
For B5, the localisation_or_trafficking entry in [1] is reported as “no change”.

B6: SEMA7A: 3NQ (protein)
parent chain: B1 parent chain
For the protein B6, the oligomerisation result in data set [3] was “no change”.

B7: SEMA7A: 5NQ (protein)
parent chain: B1 parent chain
With B7, the “other: IL-2 release by cocultured Jurkat cells” value in data set [4] is “increases”. The oligomerisation entry in [3] is “abolishes”. Besides, the degradation_or_half_life result in data set [5] is listed as “changes”; in data set [7] (control: SEMA7A-WT), “increases”. In the data set “ELISA of secreted SEMA7A”, the expression_or_secretion result is given as “no change”. In addition, the localisation_or_trafficking entry in [1] is “decreases”. The “other: sensitivity to EGFR inhibitors” value in data set [6] is “increases”. Further, the “other: immunogenic cell death markers” value in data set [8] is on record as “increases”. Also, the “other: PD-L1 alternative splicing” value in data set [9] is listed as “changes”. In addition, in data set [10], the “other: exhaustion of cocultured CD8+ T cells” value is on record as “decreases”. Further, the “other: susceptibility to CD8+ T-cell killing” value in [11] is given as “increases”. In addition, the “other: sensitivity to doxorubicin” value in “cell viability” is “increases”.

B8: SEMA7A: tunicamycin (protein)
parent chain: B1 parent chain
For the protein B8, the degradation_or_half_life result in data set [7] (control: untreated (endogenous SEMA7A)) is “increases”.

B9: SEMA7A: N157Q (protein)
parent chain: B1 parent chain
As for B9, in data set [1], the localisation_or_trafficking result is on record as “no change”.
